In patent US20150166643A1 (Alexion, published 2015):

Experiments:
[1] = molecular target: T1, human factor B (purified, Complement Technology A135) (human, UniProt P00751 26-764); assay: cell-based or functional assay
[2] = molecular target: T1, human factor B (purified, Complement …); assay: SPR (Biacore), CLS012 captured on anti-Fc surface, soluble factor B 3.1-200 nM flowed; Chi2 6.74, fitted lines depart visibly from the data (the text calls the fits poor)
Text: (§1) Binding kinetics of mAbs were further characterized using Biacore's Surface Plasmon Resonance (SPR) technology (GE Healthcare, Piscataway, N.J.). For a detailed description of SPR and its applications in affinity measurement, please see Karlsson and Larsson, Antibody Engineering: Methods and Protocols, Methods in Molecular Biology (2003), 248: 389-415. In one exemplary experiment, TA106 Fab and derivative mAbs were captured on chips of a Biacore 3000 analyzer and samples of human factor B of different concentrations were flowed as the antigen over the surface to model soluble human factor B binding, using protocols recommended by the manufacturer (e.g., in the product brochure #BR-9003-31). All these referenced publications are hereby incorporated by reference in their entirety. […] Fab TA106 (Xoma, Lot#TTA1007, 20 mg/mL) was then flowed over one flow cell, followed by injections of human factor B on both flow cells. Concentrations (factor B) between 3.1-200 nM were run. The surface was regenerated between each cycle. […] The affinities of mAbs, i.e., CLS011, CLS012, and CLS013, were determined using a similar capture approach. In one exemplary experiment, human anti-Fc antibody was amine coupled to two flow cells of a CM5 chip. Each of the TA106-originated mAbs was then flowed over one flow cell, followed by injecting human factor B (3.1-200 nM) on both flow cells. […]

[3] = molecular target: T1, human factor B (purified, Complement …); assay: SPR (Biacore 3000), mAb captured by anti-Fc antibody on CM5 chip, soluble human factor B 3.1-200 nM; filing calls this value not reliable (poor fits); poor fits; patent calls the value not reliable
Text: as §1

[4] = molecular target: T1, human factor B (purified, Complement …); assay: BLI (Octet), biotinylated factor B on streptavidin biosensor, Fab at 25 nM
Procedure: (§2) Binding kinetics of TA106 and TA106 S33A Fab (CLS016) to Factor B were analyzed using a FortéBio® Octet® biosensor (FortéBio, Inc.) in a similar protocol as described previously. In one exemplary experiment, Factor B (Complement Technology) was biotinylated at a 1:10 ratio and coupled to a streptavidin biosensor at a concentration of 5 μg/mL for a loading time of 600 seconds. Biosensors were briefly dipped in 1×KB as a wash for 30 seconds. Associations with a titration series of Fab with a concentration range from 100 to 3 nM (diluted in 1×KB) were carried out for 600 seconds. Fabs were dissociated from the biosensor by immersing the biosensor in 1×KB during the 600 second dissociation phase. As depicted in FIGS. 19 and 20, both TA106 Fab and TA106-derivative S33A Fab (CLS016) bound to Factor B at various concentrations, resulting in nearly identical association and dissociation profiles. Kinetic assessments using partial local fit parameters yielded identical values for KD/kₐ/Kd at each concentration tested.

[5] = molecular target: T1, human factor B (purified, Complement …); assay: BLI (Octet), binding to factor B (summary table)
Procedure: as §2

[6] = molecular target: T1, human factor B (purified, Complement …); assay: BLI (Octet), biotinylated factor B on streptavidin biosensor, Fab at 12.5 nM
Procedure: as §2

[7] = molecular target: T1, human factor B (purified, Complement …); assay: SPR (Biacore), factor B coupled to the chip, free CLS016 Fab 0.19-25 nM flowed; Chi2 0.121 (the text rounds to 3.4 nM)
Text: (§3) Binding kinetics of TA106 Fab and variant S33A Fab (CLS016) were further characterized using Surface Plasmon Resonance (SPR) technology. In one exemplary experiment, both Fabs were captured on chips of a Biacore 3000 analyzer and samples of human factor B of different concentrations were flowed as the antigen over the surface to model soluble human factor B binding, using protocols recommended by the manufacturer and described previously in the instant disclosure. […] In another exemplary experiment, the affinities of both Fabs were also measured by reversing the orientation of the previous experiment. Specifically, human factor B was directly coupled to one flow cell of a CM5 chip. The second flow cell was used as a blank reference with no coupled ligand. CLS016 or TA106 Fab was then flowed on both flow cells. Concentrations between 0.19 to 25 nM were run with duplicates. The surface was regenerated between each cycle.

[8] = molecular target: T1, human factor B (purified, Complement …); assay: BLI (Octet), biotinylated factor B on streptavidin biosensor, Fab at 100 nM
Procedure: as §2

[9] = molecular target: T1, human factor B (purified, Complement …); assay: SPR (Biacore), CLS016 Fab captured on anti-Fab surface, soluble factor B flowed; Chi2 0.155
Text: as §3

[10] = molecular target: T1, human factor B (purified, Complement …); assay: SPR (Biacore 3000), Fab captured on chip, soluble human factor B 3.1-100 nM
Text: as §3

[11] = molecular target: T1, human factor B (purified, Complement …); assay: SPR, factor B on surface, Fab flowed (summary table)
Text: as §3

[12] = molecular target: T1, human factor B (purified, Complement …); assay: BLI (Octet), biotinylated factor B on streptavidin biosensor, Fab at 6.25 nM
Procedure: as §2

[13] = molecular target: T1, human factor B (purified, Complement …); assay: BLI (Octet), biotinylated factor B on streptavidin biosensor, Fab at 3.13 nM
Procedure: as §2

[14] = molecular target: T1, human factor B (purified, Complement …); assay: SPR (Biacore), human factor B directly coupled to CM5 chip, Fab flowed at 0.19-25 nM
Text: as §3

[15] = molecular target: T1, human factor B (purified, Complement …); assay: BLI (Octet), biotinylated factor B on streptavidin biosensor, Fab at 50 nM
Procedure: as §2

[16] = molecular target: T1, human factor B (purified, Complement …); assay: SPR (Biacore), factor B coupled to the chip, free CLS016 Fab 0.19-25 nM flowed; Chi2 0.121
Text: as §3

T1 sequence (P00751 26-764): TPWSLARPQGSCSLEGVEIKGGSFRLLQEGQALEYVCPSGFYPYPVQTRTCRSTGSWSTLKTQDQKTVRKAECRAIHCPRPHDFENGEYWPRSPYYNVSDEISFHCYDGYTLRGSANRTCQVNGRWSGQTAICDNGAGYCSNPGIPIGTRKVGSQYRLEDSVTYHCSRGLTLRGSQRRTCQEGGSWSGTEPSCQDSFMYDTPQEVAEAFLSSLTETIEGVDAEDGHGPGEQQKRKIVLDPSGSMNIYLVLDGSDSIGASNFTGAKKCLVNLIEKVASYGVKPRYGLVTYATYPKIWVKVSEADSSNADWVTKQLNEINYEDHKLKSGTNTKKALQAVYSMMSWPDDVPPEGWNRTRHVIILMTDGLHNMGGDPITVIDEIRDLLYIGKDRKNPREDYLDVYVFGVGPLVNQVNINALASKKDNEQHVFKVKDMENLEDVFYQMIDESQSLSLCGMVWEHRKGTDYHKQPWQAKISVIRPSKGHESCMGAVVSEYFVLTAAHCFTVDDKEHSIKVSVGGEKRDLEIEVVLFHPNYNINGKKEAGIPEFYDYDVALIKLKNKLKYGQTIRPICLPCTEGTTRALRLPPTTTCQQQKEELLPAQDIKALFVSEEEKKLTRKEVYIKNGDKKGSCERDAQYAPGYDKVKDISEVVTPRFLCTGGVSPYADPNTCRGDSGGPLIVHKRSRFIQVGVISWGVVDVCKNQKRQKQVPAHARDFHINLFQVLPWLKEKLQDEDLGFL

B1: CLS012 (TA106-derivative N31Q variant, full-length IgG2/4 mAb, expressed in CHO cells) (antibody, V domains shown)
VH: EVQLVQSGAEVKKPGASVKVSCKASGYSFTDYYMTWVRQAPGQGLEWMGWINPNSGGTKYAQKFQGRVTMTRDTSISTAYMELSRLRSDDTAVYYCARGYYANSAWFAYWGQGTLVTVSS
VL: DIVMTQSPDSLAVSLGERATINCKSSQSLLQSSTSKNYLAWYQQKPGQPPKLLIYWASTRESGVPDRFSGSGSGTDFTLTISSLQAEDVAVYYCKQVYNLPWTFGQGTKLEIKR
modifications: N-linked glycans on the heavy chain constant region
notes: Human IgG2/4 full-length mAb; also called CLS012 mAb; TA106 variant N31Q
B1 was tested, and the “IC50 (read off the curve); lysis of rabbit red blood cells in 10% normal human serum” value [1] was roughly 20 nM, the koff [2] was 0.00422 s⁻¹ and the kon [2] was 366000 M⁻¹ s⁻¹. It also gave a Kd [3] of roughly 11.5 nM.

B2: CLS016 (TA106-derivative S33A variant, IgG1 Fab, expressed in CHO cells) (Fab, V domains shown)
VH: QVQLVQSGAEVKKPGASVKVSCKASGYSFTDYYMTWVRQAPGQGLEWMGWINPNSGGTKYAQKFQGRVTMTRDTSISTAYMELSRLRSDDTAVYYCARGYYANSAWFAYWGQGTLVTVSS
VL: DIVMTQSPDSLAVSLGERATINCKSSQSLLNSATSKNYLAWYQQKPGQPPKLLIYWASTRESGVPDRFSGSGSGTDFTLTISSLQAEDVAVYYCKQVYNLPWTFGQGTKLEIKR
notes: IgG1 Fab of the S33A variant, made in CHO cells; also called TA106 S33A Fab; TA106-derivative S33A Fab
Binder B2 has a Kd [4] of 22.2 nM, a koff [4] of 0.00392 s⁻¹ and a kon [4] of 177000 M⁻¹ s⁻¹. The Kd [5] was 20 to 30 nM, the Kd [6] was 31.4 nM and the koff [6] was 0.00353 s⁻¹. The kon [6] was 112000 M⁻¹ s⁻¹, the Kd [7] was 3.37 nM and the Kd [8] was 13 nM. For the same binder, the koff [8] was 0.00438 s⁻¹, the kon [8] was 338000 M⁻¹ s⁻¹ and the koff [9] was 0.00429 s⁻¹. It also gave a kon [9] of 131000 M⁻¹ s⁻¹, a Kd [10] of roughly 32.8 nM and a Kd [11] of 2.6 nM. The Kd [12] was 41.9 nM, the koff [12] was 0.00322 s⁻¹ and the kon [12] was 76900 M⁻¹ s⁻¹. It also gave a Kd [13] of 28 nM, a koff [13] of 0.00244 s⁻¹ and a kon [13] of 87300 M⁻¹ s⁻¹. The Kd [14] was roughly 3.4 nM, the Kd [15] was 21.5 nM and the koff [15] was 0.00412 s⁻¹. The kon [15] was 192000 M⁻¹ s⁻¹, the koff [16] was 0.00466 s⁻¹ and the kon [16] was 1.38e+06 M⁻¹ s⁻¹.
